We go through one molecule from paper PMC4368798, “Protein-Binding RNA Aptamers Affect Molecular Interactions Distantly from Their Binding Sites” (PLoS ONE, 2015).

The assay addresses T1, Human uPAR (uPA receptor), recombinant (human, UniProt Q03405 23-305).
T1 construct: probably a soluble form without the GPI anchor (surmise)
The experiment in a line: SPR; uPAR coupled to the sensor surface (1000 RU, 15 ug/mL in 10 mM Na acetate pH 4.5); 4 nM purified uPA variant (pro-uPA, ATF or GFD) passed over with or without RNA aptamer; bound amount after 80 s injection. The note with it: both partners purified. For orientation: In SPR one partner is held on a chip, and binding of the other changes the refractive index at the surface.

T1 sequence (Q03405 23-305): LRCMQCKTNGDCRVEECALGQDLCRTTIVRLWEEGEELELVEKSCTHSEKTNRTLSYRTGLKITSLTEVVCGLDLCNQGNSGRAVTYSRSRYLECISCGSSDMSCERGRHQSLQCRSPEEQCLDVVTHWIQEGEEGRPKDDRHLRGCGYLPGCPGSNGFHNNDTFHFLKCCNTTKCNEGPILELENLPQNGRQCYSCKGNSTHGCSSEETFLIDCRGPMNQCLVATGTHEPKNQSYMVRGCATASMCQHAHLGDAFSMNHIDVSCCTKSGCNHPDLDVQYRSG

B1: GFD^4-43 domain of uPA (domain or fragment, human, UniProt P00749 24-63, looked up)
chain: LHQVPSNCDCLNGGTCVSNKYFSNIHWCNCPKKFGGQHCE
notes: human uPA epidermal growth factor-like domain, residues 4-43; numbers count on: the mature protein; also called growth factor domain; source: excised from recombinant pro-uPA by Glu-C digestion, purified by size exclusion chromatography
Turning to B1, the binding result is “binds”.
